The values that follow come from US20080260755A1.

Series [1] has as its target activated FIX-albumin fusion protein with non-cleavable linker (980/797), activated by FXIa (human) (UniProt P00740). The experiment in a line: cell-based or functional assay.
The target in series [2] is activated FIX-albumin fusion protein with cleavable linker (1088/797), activated by FXIa (human) (UniProt P00740). The experiment in a line: cell-based or functional assay.
Series [3] has as its system FIX-albumin fusion protein with non-cleavable linker (1478/797).
Series [4] relates to FIX-albumin fusion protein with cleavable linker, construct no. 1089/797.
Series [5] relates to FIX-albumin fusion protein with cleavable linker, construct no. 1088/797.
The target in series [6] is FIX-albumin fusion protein with cleavable linker, construct no. 1089/797. The source holds these as a separate data set.
Series [7] deals with FIX-albumin fusion protein with cleavable linker, construct no. 1088/797. This is another data set of the same source.

In series [1], “Antithrombin III (AT) (from UniProt P01008 33-464)” gave a clotting time (naPTT) after 120 min incubation with AT of 411 s and a clotting time (naPTT), control without incubation with AT of 196 s. In addition, in series [2], the clotting time (naPTT) after 120 min incubation with AT stood at 540 s; the clotting time (naPTT), control without incubation with AT was determined as 210 s; the factor of increase in clotting time (naPTT) after 120 min incubation with AT is 2.57 x.

On to Factor XIa (FXIa), for which the “proteolytic cleavage in vitro, SDS-PAGE” value in series [3] was “The fusion protein with non-cleavable linker did not show a corresponding release of the albumin moiety”; in series [4] it was “are activated and in parallel the linker is cleaved resulting in release of the albumin moiety”; in series [5], “are activated and in parallel the linker is cleaved resulting in release of the albumin moiety”.

B1: FVIIa (in the presence of tissue factor) (protein)
chain: ANAFLEELRPGSLERECKEEQCSFEEAREIFKDAERTKLFWISYSDGDQCASSPCQNGGSCKDQLQSYICFCLPAFEGRNCETHKDDQLICVNENGGCEQYCSDHTGTKRSCRCHEGYSLLADGVSCTPTVEYPCGKIPILEKRNASKPQGRIVGGKVCPKGECPWQVLLLVNGAQLCGGTLINTIWVVSAAHCFDKIKNWRNLIAVLGEHDLSEHDGDEQSRRVAQVIIPSTYVPGTTNHDIALLRLHQPVVLTDHVVPLCLPERTFSERTLAFVRFSLVSGWGQLLDRGATALELMVLNVPRLMTQDCLQQSRKVGDSPNITEYMFCAGYSDGSKDSCKGDSGGPHATHYRGTWYLTGIVSWGQGCATVGHFGVYTRVSQYIEWLQKLMRSEPRPGVLLRAPFP
For B1, the “proteolytic cleavage in vitro in the presence of tissue factor (data not shown)” value in series [6] and in series [7] was “also showed release of the albumin moiety in parallel to release of the FIX activation peptide” throughout.
